Assay results as given in patent US20190040102A1 (CDRD VENTURES, published 2019).
One block for each binder: values may come before it. Positions of bridges follow the written chain, without caps; N, C: chain ends. Non-standard residues stand in square brackets, D forms with d. thiocarbamate = -NH-(C=O)-S- bridge between side chains (disulfide isostere); dPhe(4-CONH2) = NC(=O)c1ccc(C[C@@H](N)C(=O)O)cc1; Phe(4-Cl) = N[C@@H](Cc1ccc(Cl)cc1)C(=O)O; dNMeC = CN[C@H](CS)C(=O)O; dDap = NC[C@@H](N)C(=O)O; Dap = NC[C@H](N)C(=O)O

Target: somatostatin receptor type 2 (SSTR2) (UniProt P30874 1-369)
Assay: cell-based or functional assay

Sequence of somatostatin receptor type 2 (SSTR2) (P30874 whole entry): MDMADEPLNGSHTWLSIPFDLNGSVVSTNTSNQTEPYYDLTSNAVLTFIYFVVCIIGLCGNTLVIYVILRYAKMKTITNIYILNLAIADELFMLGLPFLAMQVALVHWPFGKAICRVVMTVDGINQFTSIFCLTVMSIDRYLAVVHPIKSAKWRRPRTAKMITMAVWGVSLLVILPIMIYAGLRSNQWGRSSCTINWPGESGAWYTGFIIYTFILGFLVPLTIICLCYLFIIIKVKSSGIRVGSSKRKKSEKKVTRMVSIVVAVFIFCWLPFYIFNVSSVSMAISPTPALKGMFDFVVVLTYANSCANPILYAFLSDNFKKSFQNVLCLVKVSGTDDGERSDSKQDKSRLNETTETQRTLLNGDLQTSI

Binder: {CH3O2C(CH2)2(CO)}-[Phe(4-Cl)][dC]Y[dPhe(4-CONH2)]K(Me)TC[dY]-NH2 (disulfide 2-7) [Compound 58: CH3O2C(CH2)2(CO)-Cpa-cyclo[D-Cys-Tyr-D-Phe(4-carbamoyl)-Lys(Nε-Me)-Thr-Cys]-D-Tyr-NH2]
IC50 (PathHunter β-Arrestin, antagonist mode): 2.36 nM

B4: Compound 55: Ac-Gly-Cpa-cyclo[D-Cys-Tyr-D-Phe(4-carbamoyl)-Lys(Nε-Me)-Thr-Cys]-D-Tyr-NH2 (peptide)
peptide: Ac-G[Phe(4-Cl)][dC]Y[dPhe(4-CONH2)]K(Me)TC[dY]-NH2
modifications: disulfide 3-8
SMILES: CNCCCC[C@@H]1NC(=O)[C@@H](Cc2ccc(C(N)=O)cc2)NC(=O)[C@H](Cc2ccc(O)cc2)NC(=O)[C@H](NC(=O)[C@H](Cc2ccc(Cl)cc2)NC(=O)CNC(C)=O)CSSC[C@@H](C(=O)N[C@H](Cc2ccc(O)cc2)C(N)=O)NC(=O)[C@H]([C@@H](C)O)NC1=O
IC50 (PathHunter β-Arrestin, antagonist mode): 3.35 nM

Binder: {2‑furoyl}-[Phe(4-Cl)][dC]Y[dPhe(4-CONH2)]K(Me)TC[dY]-NH2 (disulfide 2-7) [Compound 57: (Furan-2-carboxy)-Cpa-cyclo[D-Cys-Tyr-D-Phe(4-carbamoyl)-Lys(Nε-Me)-Thr-Cys]-D-Tyr-NH2]
IC50 (PathHunter β-Arrestin, antagonist mode): 3.65 nM

B8: Compound 77: H-(N-Me)Cpa-cyclo[D-Cys-Tyr-D-Phe(4-carbamoyl)-Lys-Thr-Cys]-D-Tyr-NH2 (peptide)
peptide: XXYXKTCX
HELM: PEPTIDE1{[CN[C@@H](Cc1ccc(Cl)cc1)C(=O)[*:2]].[dC].Y.[NC(=O)c1ccc(C[C@@H](N[*:1])C(=O)[*:2])cc1].K.T.C.[dY].[am]}$PEPTIDE1,PEPTIDE1,2:R3-7:R3$$$V2.0
SMILES: CN[C@@H](Cc1ccc(Cl)cc1)C(=O)N[C@@H]1CSSC[C@@H](C(=O)N[C@H](Cc2ccc(O)cc2)C(N)=O)NC(=O)[C@H]([C@@H](C)O)NC(=O)[C@H](CCCCN)NC(=O)[C@@H](Cc2ccc(C(N)=O)cc2)NC(=O)[C@H](Cc2ccc(O)cc2)NC1=O
IC50 (PathHunter β-Arrestin, antagonist mode): 2.25 nM

More lines, now with the values ahead:

IC50 (PathHunter β-Arrestin, antagonist mode): 547 nM
B1: Compound 73: H-Cpa-[DCys-Tyr-DPhe(4-carbamoyl)-Lys-NMeThr-Cys]-DTyr-NH2 (peptide)
peptide: XXYXKXCX
HELM: PEPTIDE1{[N[C@@H](Cc1ccc(Cl)cc1)C(=O)[*:2]].[dC].Y.[NC(=O)c1ccc(C[C@@H](N[*:1])C(=O)[*:2])cc1].K.[meT].C.[dY].[am]}$PEPTIDE1,PEPTIDE1,2:R3-7:R3$$$V2.0
SMILES: C[C@@H](O)[C@H]1C(=O)N[C@H](C(=O)N[C@H](Cc2ccc(O)cc2)C(N)=O)CSSC[C@@H](NC(=O)[C@@H](N)Cc2ccc(Cl)cc2)C(=O)N[C@@H](Cc2ccc(O)cc2)C(=O)N[C@H](Cc2ccc(C(N)=O)cc2)C(=O)N[C@@H](CCCCN)C(=O)N1C

IC50 (PathHunter β-Arrestin, antagonist mode): > 1000 nM
Binder: H-[Phe(4-Cl)][dC]Y[dPhe(4-CONH2)]KT[Dap][dY]-NH2 (bridge 2-7 via thiocarbamate) [Compound 62: H-Cpa-cyclo[DCys-Tyr-DPhe(4-CONH2)-Lys-Thr-Dap]-DTyr-NH2]

IC50 (PathHunter β-Arrestin, antagonist mode): > 1000 nM
B2: Compound 69: H-Cpa-cyclo[DDap-Tyr-DPhe(4-CONH2)-Lys-Thr-Asp]-DTyr-NH2 (peptide)
peptide: H-[Phe(4-Cl)][dDap]Y[dPhe(4-CONH2)]KTD[dY]-NH2
modifications: lactam 2-7; not fully specified; printed as H-Cpa-cyclo[DDap-Tyr-DPhe(4-CONH2)-Lys-Thr-Asp]-DTyr-NH2

IC50 (PathHunter β-Arrestin, antagonist mode): 6.79 nM
B3: Compound 78: H-Cpa-[NMeDCys-Tyr-DPhe(4-carbamoyl)-Lys-Thr-Cys]-DTyr-NH2 (peptide)
peptide: H-[Phe(4-Cl)][dNMeC]Y[dPhe(4-CONH2)]KTC[dY]-NH2
modifications: disulfide 2-7
SMILES: C[C@@H](O)[C@@H]1NC(=O)[C@H](CCCCN)NC(=O)[C@@H](Cc2ccc(C(N)=O)cc2)NC(=O)[C@H](Cc2ccc(O)cc2)NC(=O)[C@H](N(C)C(=O)[C@@H](N)Cc2ccc(Cl)cc2)CSSC[C@@H](C(=O)N[C@H](Cc2ccc(O)cc2)C(N)=O)NC1=O

IC50 (PathHunter β-Arrestin, antagonist mode): 39.1 nM
B5: Compound 59: H-Cpa-[DCys-Tyr-DPhe(4-CN)-Lys-Thr-Cys]-DTyr-NH2 (peptide)
peptide: XXYXKTCX
HELM: PEPTIDE1{[N[C@@H](Cc1ccc(Cl)cc1)C(=O)[*:2]].[dC].Y.[N#Cc1ccc(C[C@@H](N[*:1])C(=O)[*:2])cc1].K.T.C.[dY].[am]}$PEPTIDE1,PEPTIDE1,2:R3-7:R3$$$V2.0
SMILES: C[C@@H](O)[C@@H]1NC(=O)[C@H](CCCCN)NC(=O)[C@@H](Cc2ccc(C#N)cc2)NC(=O)[C@H](Cc2ccc(O)cc2)NC(=O)[C@H](NC(=O)[C@@H](N)Cc2ccc(Cl)cc2)CSSC[C@@H](C(=O)N[C@H](Cc2ccc(O)cc2)C(N)=O)NC1=O

IC50 (PathHunter β-Arrestin, antagonist mode): 13.3 nM
B6: Compound 71: H-Cpa-cyclo[DDap-Tyr-DPhe(4-CONH2)-Lys(Me)-Thr-Asp]-DTyr-NH2 (peptide)
peptide: H-[Phe(4-Cl)][dDap]Y[dPhe(4-CONH2)]K(Me)TD[dY]-NH2
modifications: lactam 2-7; not fully specified; printed as H-Cpa-cyclo[DDap-Tyr-DPhe(4-CONH2)-Lys(Me)-Thr-Asp]-DTyr-NH2

IC50 (PathHunter β-Arrestin, antagonist mode): 5.77 nM
B7: Compound 72: H-Cpa-cyclo[DCys-Tyr-D-(4-carbamoyl)Phe-(N-alpha-Me)Lys-Thr-Cys]-DTyr-NH2 (peptide)
peptide: XXYXXTCX
HELM: PEPTIDE1{[N[C@@H](Cc1ccc(Cl)cc1)C(=O)[*:2]].[dC].Y.[NC(=O)c1ccc(C[C@@H](N[*:1])C(=O)[*:2])cc1].[meK].T.C.[dY].[am]}$PEPTIDE1,PEPTIDE1,2:R3-7:R3$$$V2.0
SMILES: C[C@@H](O)[C@@H]1NC(=O)[C@H](CCCCN)N(C)C(=O)[C@@H](Cc2ccc(C(N)=O)cc2)NC(=O)[C@H](Cc2ccc(O)cc2)NC(=O)[C@H](NC(=O)[C@@H](N)Cc2ccc(Cl)cc2)CSSC[C@@H](C(=O)N[C@H](Cc2ccc(O)cc2)C(N)=O)NC1=O
